Measurements from patent US20110189183A1.
Positions count from the first letter of the chain named.

B1: 1H12 Fab (Fab, V domains shown)
VH: EVQLVESGGGLVKAGGSLILSCGVSNFRISAHTMNWVRRVPGGGLEWVASISTSSTYRDYADAVKGRFTVSRDDLEDFVYLQMHKMRVEDTAIYYCARKGSDRLSDNDPFDAWGPGTVVTVSP
VL: GVVMTQSPSTLSASVGDTITITCRASQSIETWLAWYQQKPGKAPKLLIYKASTLKTGVPSRFSGSGSGTEFTLTISGLQFDDFATYHCQHYMPYRASFGQGTRVEIKR
B2: A1G7 Fab (Fab, V domains shown)
VH: B1 VH
VL: GVVMTQSPSTLSASVGDTITITCRASQSIETWLAWYQQKPGKAPKLLIYKASTLKTGVPSRFSGSGSGTEFTLTISGLQFDDFATYHCQHYTDHRGATFGQGTRVEIKR
B3: A4F10 Fab (Fab, V domains shown)
VH: B1 VH
VL: B2 VL with R95Y
B4: P2H12 Fab (Fab, V domains shown)
VH: B1 VH
VL: B2 VL with R95H
B5: 1F8 IgG (antibody, V domains shown)
VH: B1 VH
VL: B1 VL with M92L, Y94F, R95N, S97T
B6: 2G12 Polymun (Cat. No. AB002, Polymun Scientific) (antibody, V domains shown)
VH: B1 VH
VL: B1 VL with G1D, M92A, P93G, R95S, S97T
B7: 1H12 IgG (antibody, V domains shown)
VH: B1 VH
VL: B1 VL
B8: 2G12 IgG (wildtype, made in house) (antibody, V domains shown)
VH: B1 VH
VL: B1 VL with G1D, M92A, P93G, R95S, S97T
B9: ID-3-RD6-P1H10 Fab (Fab, V domains shown)
VH: B1 VH
VL: B2 VL with D93A, R95N
B10: ID-1-RD5-P2H8 Fab (Fab, V domains shown)
VH: B1 VH
VL: B1 VL with M92R, P93E, Y94W, R95H, S97T
B11: ID-2-RD6-P1H11 Fab (Fab, V domains shown)
VH: B1 VH
VL: B1 VL with P93A, R95D, S97T
B12: ID-2-RD6-P1H10 Fab (Fab, V domains shown)
VH: B1 VH
VL: B1 VL with M92Q, Y94F, R95K, S97T
B13: ID-1-RD4-P2C10 Fab (Fab, V domains shown)
VH: B1 VH
VL: B1 VL with M92K, Y94F, R95M, S97T
B14: ID-3-RD5-P2H7 Fab (Fab, V domains shown)
VH: B1 VH
VL: B2 VL with T92R, D93A, R95S
B15: ID-2-RD4-P1A5 Fab (Fab, V domains shown)
VH: B1 VH
VL: B1 VL with M92L, P93S, R95N, S97T
B16: ID-3-RD5-P2E9 Fab (Fab, V domains shown)
VH: B1 VH
VL: B2 VL with D93P, R95F
B17: ID-1-RD4-P2G9 Fab (Fab, V domains shown)
VH: B1 VH
VL: B1 VL with M92Q, Y94F, R95D, S97T
B18: A5G10 IgG (antibody, V domains shown)
VH: B1 VH
VL: B2 VL with T92R, D93P, R95T
B19: P1F9 IgG (antibody, V domains shown)
VH: B1 VH
VL: B2 VL with T92R, D93A, R95T
B20: A1E8 IgG (antibody, V domains shown)
VH: B1 VH
VL: B2 VL with R95K
B21: A4F10 IgG (antibody, V domains shown)
VH: B1 VH
VL: B2 VL with R95Y
B22: A1G7 IgG (antibody, V domains shown)
VH: B1 VH
VL: B2 VL
B23: P2H12 IgG (antibody, V domains shown)
VH: B1 VH
VL: B2 VL with R95H
B24: A2A12 IgG (antibody, V domains shown)
VH: B1 VH
VL: B2 VL with D93A, R95T
B25: P4H12 IgG (antibody, V domains shown)
VH: B1 VH
VL: B2 VL with D93A

These binders were tested against Candida albicans (Cat. No. 10231, ATCC) whole cells (Candida albicans) (assay: luminescent ELISA, Fab on C. albicans cells).
For B1, the Approximate Affinity was 9 µg/mL.
B2 gave an Approximate Affinity of 1.5 µg/mL.
In the case of B3, the Approximate Affinity is reported as 1 µg/mL.
Binder B4 has an Approximate Affinity of 2 µg/mL.

What follows are binders tested against Candida albicans (Cat. No. 10231, ATCC) whole cells (Candida albicans) (assay: colorimetric ELISA on C. albicans cells, [50% Max]).
Binder B5 has an EC50 of 0.9 nM.
B6 showed an EC50 of 76.3 nM.
B7 showed an EC50 of 0.4 nM.
In the case of B8, the EC50 is reported as 9.7 nM.

Each binder was assayed against Candida albicans (Cat. No. 10231, ATCC) whole cells (Candida albicans) (assay: FACS, IgG on fixed C. albicans cells, concentration at 50% maximum binding).
With B5 the EC50 was 15.1 nM.
Binder B6 has an EC50 of 500 nM.
With B7 the EC50 was 5.2 nM.
For B8, the EC50 was 150 nM.

These binders were tested against Candida albicans (Cat. No. 10231, ATCC) whole cells (Candida albicans) (assay: luminescent C. albicans ELISA, Fab; assay background 950).
B1 was tested, and the ELISA (RFU) was 1710 RFU.
B9 gave an ELISA (RFU) of 50000 RFU.
With B10 the ELISA (RFU) was 3500 RFU.
B11 gave an ELISA (RFU) of 13000 RFU.
B12 gave an ELISA (RFU) of 5000 RFU.
Work on B13 yielded an ELISA (RFU) of 7900 RFU.
Binder B14 has an ELISA (RFU) of 27000 RFU.
Binder B15 has an ELISA (RFU) of 8140 RFU.
B16 showed an ELISA (RFU) of 8000 RFU.
With B17 the ELISA (RFU) was 4000 RFU.

What follows are binders tested against Candida glabrata clinical isolate, whole cells (Candida glabrata) (assay: FACS, IgG on fixed cells).
Work on B18 yielded an affinity of 72 nM.
For B19, the affinity was 102 nM.
B7 showed an affinity of 12 nM.

The binders below were run against Candida krusei clinical isolate, whole cells (Candida krusei) (assay: FACS, IgG on fixed cells).
With B18 the affinity was 50 nM.
For B19, the affinity was 27 nM.
With B20 the affinity was 50 nM.
Binder B6 has an affinity of 1000 nM.
With B21 the affinity was 50 nM.
Binder B22 has an affinity of 50 nM.
B7 gave an affinity of 17 nM.
In the case of B23, the affinity is reported as 50 nM.
In the case of B24, the affinity is reported as 50 nM.

Each binder was assayed against Candida albicans (Cat. No. 10231, ATCC) whole cells (Candida albicans) (assay: FACS, IgG on fixed cells).
With B18 the affinity was 50 nM.
Binder B19 has an affinity of 23 nM.
With B20 the affinity was 50 nM.
B6 was tested, and the affinity was 500 nM.
B21 showed an affinity of 50 nM.
B22 gave an affinity of 50 nM.
B7 gave an affinity of 10 nM.
Binder B23 has an affinity of 50 nM.
B24 gave an affinity of 50 nM.

These binders were tested against Candida tropicalis clinical isolate, whole cells (Candida tropicalis) (assay: FACS, IgG on fixed cells).
Binder B19 has an affinity of 51 nM.
B7 gave an affinity of 23 nM.
B25 showed an affinity of 21 nM.

The binders below were run against Candida albicans (Cat. No. 10231, ATCC) whole cells (Candida albicans) (assay: converted from Table 20a with a Fab of about 50 kDa).
For B1, the affinity (converted to molar) was 180 nM.
B2 gave an affinity (converted to molar) of 30 nM.
With B3 the affinity (converted to molar) was 20 nM.
In the case of B4, the affinity (converted to molar) is reported as 40 nM.

Each binder was assayed against Candida albicans (Cat. No. 10231, ATCC) whole cells (Candida albicans) (assay: C. albicans FACS, mean FITC fluorescence, Fab; assay background 100).
Binder B1 has an FACS (MF) of 2080 MF.
Binder B9 has an FACS (MF) of 3380 MF.
B10 gave an FACS (MF) of 4930 MF.
For B11, the FACS (MF) was 3760 MF.
B12 was tested, and the FACS (MF) was 2190 MF.
Work on B13 yielded an FACS (MF) of 10600 MF.
B14 was tested, and the FACS (MF) was 10600 MF.
For B15, the FACS (MF) was 4000 MF.
B16 showed an FACS (MF) of 8910 MF.
For B17, the FACS (MF) was 2350 MF.

What follows are binders tested against Candida albicans (Cat. No. 10231, ATCC) whole cells (Candida albicans) (assay: luminescent ELISA on C. albicans cells).
Binder B19 has an EC50 of 19 nM.
Binder B7 has an EC50 of 6.1 nM.

These binders were tested against Candida albicans (Cat. No. 10231, ATCC) whole cells (Candida albicans) (assay: colorimetric ELISA on C. albicans cells).
Binder B19 has an EC50 of 3.2 nM.
B6 showed an EC50 of 500 nM.
B7 gave an EC50 of 0.82 nM.
B8 was tested, and the fold higher affinity than 2G12 Polymun was 8 fold.

The binders below were run against Candida albicans (Cat. No. 10231, ATCC) whole cells (Candida albicans) (assay: FACS, IgG on fixed C. albicans cells; end tied to 1H12 by Table 23).
In the case of B7, the fold increased binding affinity against wildtype 2G12 is reported as 30 fold.

The binders below were run against Candida albicans (Cat. No. 10231, ATCC) whole cells (Candida albicans) (assay: FACS, IgG on fixed C. albicans cells; end tied to 1F8 by Table 23).
Work on B5 yielded a fold increased binding affinity against wildtype 2G12 of 10 fold.
